Results on six molecules are retold here after patent US20220204580A1 (AstraZeneca / MedImmune, published 2022).

Holding throughout (experiment): cell-based or functional assay
Assay [1] has as its target T1, rat calcitonin receptor (rat, UniProt P32214 25-516).
T1 sequence (looked up): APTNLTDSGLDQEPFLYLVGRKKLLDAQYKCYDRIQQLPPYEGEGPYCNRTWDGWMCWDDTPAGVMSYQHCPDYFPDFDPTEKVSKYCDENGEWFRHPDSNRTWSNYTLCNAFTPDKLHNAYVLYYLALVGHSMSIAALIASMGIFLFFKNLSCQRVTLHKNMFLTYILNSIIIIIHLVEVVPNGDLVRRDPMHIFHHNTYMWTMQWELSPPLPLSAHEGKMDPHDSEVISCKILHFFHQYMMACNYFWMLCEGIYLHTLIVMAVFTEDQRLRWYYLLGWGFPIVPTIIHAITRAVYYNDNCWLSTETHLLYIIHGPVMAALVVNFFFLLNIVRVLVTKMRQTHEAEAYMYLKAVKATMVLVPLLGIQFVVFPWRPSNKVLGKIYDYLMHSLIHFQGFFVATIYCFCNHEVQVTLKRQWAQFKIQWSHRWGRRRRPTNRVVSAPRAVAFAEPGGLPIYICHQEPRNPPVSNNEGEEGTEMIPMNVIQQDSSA

In assay [2] the target is T2, rat amylin receptor (calcitonin receptor co-expressed with receptor activity modifying protein, RAMP3) (rat, UniProt P32214 25-516; Q9JJ73 23-147).
T2 sequence (looked up) 1: T1 sequence (looked up)
T2 sequence (looked up) 2: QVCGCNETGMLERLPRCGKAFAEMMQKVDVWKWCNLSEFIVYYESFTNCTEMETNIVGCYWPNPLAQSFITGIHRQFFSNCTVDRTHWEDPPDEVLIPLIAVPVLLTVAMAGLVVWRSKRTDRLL

Assay [3] deals with T3, human calcitonin receptor (human, UniProt P30988 25-474).
T3 sequence (looked up): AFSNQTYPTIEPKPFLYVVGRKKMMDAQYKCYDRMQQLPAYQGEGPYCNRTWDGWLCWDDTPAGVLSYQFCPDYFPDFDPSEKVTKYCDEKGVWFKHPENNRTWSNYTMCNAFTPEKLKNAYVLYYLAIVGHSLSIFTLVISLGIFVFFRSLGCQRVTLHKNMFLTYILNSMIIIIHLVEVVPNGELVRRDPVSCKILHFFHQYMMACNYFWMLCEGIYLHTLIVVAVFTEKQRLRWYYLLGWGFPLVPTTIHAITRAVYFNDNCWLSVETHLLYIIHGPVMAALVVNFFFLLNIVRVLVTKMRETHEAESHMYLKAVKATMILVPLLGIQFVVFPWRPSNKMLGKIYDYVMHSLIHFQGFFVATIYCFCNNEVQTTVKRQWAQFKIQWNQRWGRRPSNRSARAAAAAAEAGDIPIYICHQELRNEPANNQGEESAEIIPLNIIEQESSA

Assay [4] has as its target T4, human amylin receptor (calcitonin receptor co-expressed with receptor activity modifying protein, RAMP3) (human, UniProt P30988 25-474; O60896 24-148).
T4 sequence (looked up) 1: T3 sequence (looked up)
T4 sequence (looked up) 2: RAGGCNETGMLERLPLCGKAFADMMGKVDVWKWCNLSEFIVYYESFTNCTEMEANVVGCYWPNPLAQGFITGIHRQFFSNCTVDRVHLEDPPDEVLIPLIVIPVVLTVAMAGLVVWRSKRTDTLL

Numbered stars: 1 amine (or outer) side, 2 acyl side, 3 side chain; on linkers, the order of the positions; unused ones are H or OH. Bridge positions count the residues as written; N and C are the ends. Square brackets hold non-standard residues; d marks the D form. Side chains are listed from the residue outwards. Ends that are not written are not given here. * marks the point of attachment. C20 diacid = O=C(O)CCCCCCCCCCCCCCCCCCC(=O)*; C18 diacid = O=C(O)CCCCCCCCCCCCCCCCC(=O)*; γGlu = O=C(O)[C@H](CCC(=O)[*:2])N[*:1]; αMeF = C[C@](N)(Cc1ccccc1)C(=O)O; AEEA = NCCOCCOCC(=O)O; Aib = CC(C)(N)C(=O)O

B1: Peptide 12 (SEQ ID NO: 12) (peptide)
peptide: K([γGlu-C18 diacid])KCNTATCATQRLAEFLRHSSNN[αMeF]GPILPPTNVGSNTY-NH2
modifications: disulfide 3-8; N-terminus assumed
SMILES: CC[C@H](C)[C@H](NC(=O)[C@@H]1CCCN1C(=O)CNC(=O)[C@](C)(Cc1ccccc1)NC(=O)[C@H](CC(N)=O)NC(=O)[C@H](CC(N)=O)NC(=O)[C@H](CO)NC(=O)[C@H](CO)NC(=O)[C@H](Cc1c[nH]cn1)NC(=O)[C@H](CCCNC(=N)N)NC(=O)[C@H](CC(C)C)NC(=O)[C@H](Cc1ccccc1)NC(=O)[C@H](CCC(=O)O)NC(=O)[C@H](C)NC(=O)[C@H](CC(C)C)NC(=O)[C@H](CCCNC(=N)N)NC(=O)[C@H](CCC(N)=O)NC(=O)[C@@H](NC(=O)[C@H](C)NC(=O)[C@@H]1CSSC[C@H](NC(=O)[C@H](CCCCN)NC(=O)[C@@H](N)CCCCNC(=O)CC[C@H](NC(=O)CCCCCCCCCCCCCCCCC(=O)O)C(=O)O)C(=O)N[C@@H](CC(N)=O)C(=O)N[C@@H]([C@@H](C)O)C(=O)N[C@@H](C)C(=O)N[C@@H]([C@@H](C)O)C(=O)N1)[C@@H](C)O)C(=O)N[C@@H](CC(C)C)C(=O)N1CCC[C@H]1C(=O)N1CCC[C@H]1C(=O)N[C@H](C(=O)N[C@@H](CC(N)=O)C(=O)N[C@H](C(=O)NCC(=O)N[C@@H](CO)C(=O)N[C@@H](CC(N)=O)C(=O)N[C@H](C(=O)N[C@@H](Cc1ccc(O)cc1)C(N)=O)[C@@H](C)O)C(C)C)[C@@H](C)O
B1: the “EC50 (cAMP production)” value came out at 0.107 nM in assay [1], 0.005 nM in assay [2], 1.22 nM in assay [3] and 0.158 nM in assay [4]. The “Ratio (EC50 hCTR / EC50 hAMYR3)” value in assay [4] came out at 8.

B2: Peptide 113 (SEQ ID NO: 113) (peptide)
peptide: {C20 diacid-γGlu-AEEA-AEEA}-KCNTATCATQRLANFLVHSSNNFGPILPPTNVGSNTY-NH2
modifications: disulfide 2-7
On to B2, for which the “EC50 (cAMP production)” value in assay [1] was 10.4 nM; in assay [2], 0.0326 nM; in assay [3] it was 18.5 nM; in assay [4] it was 1.17 nM. The “Ratio (EC50 hCTR / EC50 hAMYR3)” value in assay [4] is 16.

B3: Peptide 10 (SEQ ID NO: 10) (peptide)
peptide: {C18 diacid-γGlu}-CNTATCATQRLAEFLRHSSNN[αMeF]GPILPPTNVGSNTY-NH2
modifications: disulfide 1-6; numbers in words are those of the source; also: K1 deleted
Regarding B3, the “EC50 (cAMP production)” value in assay [1] is 2.78 nM; in assay [2], 0.0121 nM; in assay [3] it was 2.73 nM; in assay [4] it was 0.183 nM. The “Ratio (EC50 hCTR / EC50 hAMYR3)” value in assay [4] worked out at 15.

B4: Peptide 9 (SEQ ID NO: 9) (peptide)
peptide: K([γGlu-γGlu-C18 diacid])CNTATCATQRLANFLVHSS[Aib]NFPAILSPTNVGSNTY-NH2
modifications: disulfide 2-7; N-terminus assumed
SMILES: CC[C@H](C)[C@H](NC(=O)[C@H](C)NC(=O)[C@@H]1CCCN1C(=O)[C@H](Cc1ccccc1)NC(=O)[C@H](CC(N)=O)NC(=O)C(C)(C)NC(=O)[C@H](CO)NC(=O)[C@H](CO)NC(=O)[C@H](Cc1c[nH]cn1)NC(=O)[C@@H](NC(=O)[C@H](CC(C)C)NC(=O)[C@H](Cc1ccccc1)NC(=O)[C@H](CC(N)=O)NC(=O)[C@H](C)NC(=O)[C@H](CC(C)C)NC(=O)[C@H](CCCNC(=N)N)NC(=O)[C@H](CCC(N)=O)NC(=O)[C@@H](NC(=O)[C@H](C)NC(=O)[C@@H]1CSSC[C@H](NC(=O)[C@@H](N)CCCCNC(=O)CC[C@H](NC(=O)CC[C@H](NC(=O)CCCCCCCCCCCCCCCCC(=O)O)C(=O)O)C(=O)O)C(=O)N[C@@H](CC(N)=O)C(=O)N[C@@H]([C@@H](C)O)C(=O)N[C@@H](C)C(=O)N[C@@H]([C@@H](C)O)C(=O)N1)[C@@H](C)O)C(C)C)C(=O)N[C@@H](CC(C)C)C(=O)N[C@@H](CO)C(=O)N1CCC[C@H]1C(=O)N[C@H](C(=O)N[C@@H](CC(N)=O)C(=O)N[C@H](C(=O)NCC(=O)N[C@@H](CO)C(=O)N[C@@H](CC(N)=O)C(=O)N[C@H](C(=O)N[C@@H](Cc1ccc(O)cc1)C(N)=O)[C@@H](C)O)C(C)C)[C@@H](C)O
Regarding B4, the “EC50 (cAMP production)” value in assay [1] was found to be 9.72 nM; in assay [2], 0.0178 nM; in assay [3], 13.5 nM; in assay [4], 0.32 nM. For the same molecule, the “Ratio (EC50 hCTR / EC50 hAMYR3)” value in assay [4] came out at 42.

B5: Peptide 112 (SEQ ID NO: 112) (peptide)
peptide: {C20 diacid-γGlu}-KCNTATCATQRLANFLVHSSNNFGPILPPTNVGSNTY-NH2
modifications: disulfide 2-7
In the case of B5, the “EC50 (cAMP production)” value in assay [1] was determined as 0.259 nM; in assay [2] it was 0.016 nM; in assay [3] it was 1.33 nM; in assay [4], 0.861 nM. Also, the “Ratio (EC50 hCTR / EC50 hAMYR3)” value in assay [4] came out at 2.

B6: Peptide 114 (SEQ ID NO: 114) (peptide)
peptide: K([γGlu-γGlu-C20 diacid])CNTATCATQRLANFLVHSSNNFGPILPPTNVGSRTY-NH2
modifications: disulfide 2-7; N-terminus assumed
SMILES: CC[C@H](C)[C@H](NC(=O)[C@@H]1CCCN1C(=O)CNC(=O)[C@H](Cc1ccccc1)NC(=O)[C@H](CC(N)=O)NC(=O)[C@H](CC(N)=O)NC(=O)[C@H](CO)NC(=O)[C@H](CO)NC(=O)[C@H](Cc1c[nH]cn1)NC(=O)[C@@H](NC(=O)[C@H](CC(C)C)NC(=O)[C@H](Cc1ccccc1)NC(=O)[C@H](CC(N)=O)NC(=O)[C@H](C)NC(=O)[C@H](CC(C)C)NC(=O)[C@H](CCCNC(=N)N)NC(=O)[C@H](CCC(N)=O)NC(=O)[C@@H](NC(=O)[C@H](C)NC(=O)[C@@H]1CSSC[C@H](NC(=O)[C@@H](N)CCCCNC(=O)CC[C@H](NC(=O)CC[C@H](NC(=O)CCCCCCCCCCCCCCCCCCC(=O)O)C(=O)O)C(=O)O)C(=O)N[C@@H](CC(N)=O)C(=O)N[C@@H]([C@@H](C)O)C(=O)N[C@@H](C)C(=O)N[C@@H]([C@@H](C)O)C(=O)N1)[C@@H](C)O)C(C)C)C(=O)N[C@@H](CC(C)C)C(=O)N1CCC[C@H]1C(=O)N1CCC[C@H]1C(=O)N[C@H](C(=O)N[C@@H](CC(N)=O)C(=O)N[C@H](C(=O)NCC(=O)N[C@@H](CO)C(=O)N[C@@H](CCCNC(=N)N)C(=O)N[C@H](C(=O)N[C@@H](Cc1ccc(O)cc1)C(N)=O)[C@@H](C)O)C(C)C)[C@@H](C)O
With B6, the “EC50 (cAMP production)” value was determined as 4.87 nM in assay [1], 0.0122 nM in assay [2], 15.8 nM in assay [3] and 1.32 nM in assay [4]. For the same molecule, the “Ratio (EC50 hCTR / EC50 hAMYR3)” value in assay [4] stood at 12.
